The source of these data is the nanobody polyreactivity screen of Harvey et al. (2022).

The data set can be described thus: yeast display, Sf9 membrane polyspecificity reagent, FACS + sequencing; frameworks hold sequencing errors. An outline of the steps: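 Galactose induction of a Saccharomyces cerevisiae BJ5465 synthetic nanobody display library ran 36–48 hours. The cells were then stained for 1 hour at 4 °C with 10% biotinylated, detergent-solubilized Sf9 membrane reagent, pulled down on streptavidin microbeads and FACS-sorted into low and high (top ~1%) gates on expression and reagent-binding fluorescence. Labels for polyreactivity follow the gate of origin.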
On to “QVQLVESGGALVQAGGSLRISCAASGRTLSAYAMGLYRQAPGKERELVAVISRSGGRTYYADSVKGRFTISRDNAKNTVYLQMNSLKQEDSAVYYCAAGSSRLRALYNYWGQGTQVNVSS”, for which the “polyreactivity (PSR sort gate)” value is “high polyreactivity”.
For the sequence “QVQLVESGGGLVQAGGSLRLSCAASGSIFYYYAMGWSRQAPGKERELVAGINSGDSTYYADSVKGRFTISRDNAKNTVYLQMNRLKPEYTAVYYCAASADWWYEYWGQGTEVTVSS”, the “polyreactivity (PSR sort gate)” value is “low polyreactivity”.
The result for “QVQLVESGAGLVQEGGRLRLRCAASGFTFMDNAMGCYRKAPGKETQLVAAISRSGGSTYYADSVKGRFTISRDNAKNTVYLQMKSLKPEDTEGFYCAAFLYRSQYSGFEYWGQGTQVTVSS” reads “high polyreactivity”; that for “QVQLVESGGGLVQAGGSLRLSCAASGRILVRNAMGRYRQAPGKERELVAVIRWSGGRTSYADSVKGRFTISRDNAKNTVYLQMNSLKPEDTAVYYCNKGGSYPTSNYKSYWVGVDYWGQGTQVTVSS”, “low polyreactivity”; that for “QVQLVESGGGLVQAGGSLRLSCAASGFTFWYNAMGWYRQAPGKERELVAAITSAGSTSYADSVKGRFTISRDNAKNTVYLQMNSLKPEDTAVYYCNADLASSFSRANKYDYWGQGTQVTVSS”, “low polyreactivity”.
Take “QVQLVESGGGLVQAGGSLRLSCAASGRTFAYNAMGWYRQAPGKDRELVAAITRRGGSTYYADSVKGRFTISRDNAKNTVYLQMNSLKPEDTAVYDCAKVLGGLPHGEVLDEYDYWGQGTQVTVSS”: the “polyreactivity (PSR sort gate)” value was “low polyreactivity”.
As to “QVQLVESGGGLVQAGGSLRLSCAASGSTFFPYAMGWYRQAPGKERELVATINYSGGGTYYADSVKGRFTISRDNAKNTVYLQMNSLKPEDTAVYYCANTLARFDRGYYWGQGTQVTVSS”, the “polyreactivity (PSR sort gate)” value is given as “low polyreactivity”.
For “QVQLVESGGGLVQAGGSLRLSCAASGFIFYYYAMGWYRQAPGKERELVARISRVGSTYYADSVKGRFTISRDNAKNTVYLQINSLKPEDTAVYYCAKVSIARIKTRYNYWGQATQVTVSS”, the “polyreactivity (PSR sort gate)” value is given as “high polyreactivity”.
On to “QVQLVESGGGLVQAGGSLRLSCAASRLTFVGYAMGWYRQAPGKETALVAALTSSGGGTYYADSVKGRFTISRDNAKNPVYLQMNSLKPQDTALYYCAKVTRGSQYDYWGQGTEVTVSS”, for which the “polyreactivity (PSR sort gate)” value is given as “low polyreactivity”.
As to “QVQLVESGGGLVQAGGSLRLSCAASGITFGRNTMGWYRQAPGKERELVASINKSGGSTYYADSVKGRFTISRDNAKNTVYLQMNSLKPEDTAVYYCAARTGWPRVGFLYPAHVGFDYWGQGTQVTVSS”, the “polyreactivity (PSR sort gate)” value is “low polyreactivity”.
Turning to “QVQLVESGGGLVQAGGSLRLSCAASGSTFYRNARAWYRQAPGKERELVAGISYGGGSTYYADSVKGRFTISRDNAKNTVYLQMNSLKPEDTAVYYCNAVWVKRHYYYWGQGSQVTVSS”, the “polyreactivity (PSR sort gate)” value is listed as “low polyreactivity”.
On to “QVQLVESRGGLVQAGGSLRLSCAASGRIFSIYAMGWYRQAPGKERELVAAITNGGGSTYYADSVKGRFTISRDNAKNTVYLPMISLKPEDTAVYYCAARSPGGKNTKYYWGQGTQVTVSS”, for which the “polyreactivity (PSR sort gate)” value was “high polyreactivity”.
As for “QVKLVESGGGLVQAGGSLRLSCAASGFIFLLYDMGWYRQAPGKERELVAANTSDGTTNYADSVKGRFTISRDNAKNTVYLQMNSLKPEDTAVYYCAADDEPYVYEVTAYLGYEYWGQGTQVTVSS”, the entry is “high polyreactivity”; as for “QVQLVESGGCLVQAGGSLRLSCAASGSTLIEYAMGWYRQAPGKESELVARISKSGDSTYYADSVKGRFTISRDNAKNTVYLQMISLKPEDTAVYYCAKYHRDGFYRSYLRTFDFGYWGQGTQVTVSS”, “low polyreactivity”; as for “QVQLVESGGGLVQAGGSLRLSCAASGRTFTQNAMGWYRQAPAKERELVAAISKSGDRTYYADSVKGRFTISRDNAKNTVYLQMNSLKPEDTAVYYCAADTYVSYYWWQTEDDYWGQGTQVTVSS”, “high polyreactivity”.
Consider “QVQLVESGGGLVQAGGSLRLSCAASGSILDRNAMGWYRQAPGKERELVAAISRSRGSTYYADSVKGRFTISRDNAKNTVYLQMNSLKPEDTAVYYCNAYYPFYTLIYGGPVRYYNFDYWGQGPQVTVSS”, for which the “polyreactivity (PSR sort gate)” value is “high polyreactivity”.
For “QVQLVESGGGLVQAGGSLRLSCAASGRTFRYNAMGWYRQAPGKERELVAAINWNGGSTYYADSVKGRFTISRDNAKNTGYLQMHSLKPEDTAVYYCNADFYHRYDWGQGTQVTGSS”, the “polyreactivity (PSR sort gate)” value is listed as “high polyreactivity”.
As for “QVQLVESGGGLVQAGGSLRLSCAASGSILSAYAMGWYRQAPGKERELVAAISWSGGSTYYADSVKGRFTISRDNAKNTVYLQMNSLKPEDTAVYYCATVNKKWRRYDYWGQGTQVTVSS”, the “polyreactivity (PSR sort gate)” value was “high polyreactivity”.
The result for “QVQLVESGGGLVQAGGSLRLSCAASGSIFKYNTMGWYRQAPRKERELVAAINGGGSTYYADSVKGRFTISRDNAKNTVYLLMNSLKPEDTAVYYCNARQWYWESPDDYWGQGTQVTVSS” reads “low polyreactivity”; that for “QVQLVESGGGLGQAGGSLRLSCAASGSIFQPYAMGGYRQAPGKERELVAAISSSGGSTTYADSVKGRFTISRDNAKNTVYLQMNSLKPEDTAVYYCAAEYDGPYTWVDYFYHYGYWGQGTQVTVSS”, “low polyreactivity”.
In the case of “QVQLVESGGGLVQAGGSLRLSCAASGLTFIKYTMGWSRQAPGKERELVATIRASTGSTYYADSVKGRFTISRDNAKNTVYLQMNSLKPEDTAVYYCATRSYPPYYGLYGGRAYNYWGQGTQVTVSS”, the “polyreactivity (PSR sort gate)” value is given as “high polyreactivity”.
Consider “QVQLVESGAGLVQAGGSLRLSCAASGYAMGWYRQAPGKERELVAAITSNGGRTYYADSVKGRFTISRDYAKNTVYLEMNSLKPEDTAVYYCATRTGPHYKTRWTYDQGYWGQGTQVTVSS”, for which the “polyreactivity (PSR sort gate)” value is on record as “low polyreactivity”.
As for “QVQLVESGGGLVQAGGSLRLSCAASGFIFGAYAMGWYRQAPGKERELVAALSSRGGNTYYADSVKGRFTISRDNAKNTVYLQMNSLKPEDTAVYYCNAVGYARYLYVPPPYDYWGQGTQVTVSS”, the entry is “high polyreactivity”; as for “QVQLVESVVGLVQAGGSLRLSCAASGITFNRNAMGWYIEAPGKERELVAAISSGGSTNYADSVKGRFTISRDNAKNTVYLQMNSLKPEDTAVYYCARAQYWYGKGYYYWGQGTQVTVSS”, “high polyreactivity”.
The result for “QVQLVESGGGLVQAGCSLRISCAASGFTFAHNEMGWSRQAPGKERELVAAISSRGGRTFYADSVKGRFTISRDNAKKTVYLQMNSLKPEDTAVDYCNRVRSVQYDYWGQGSQVTVSS” reads “high polyreactivity”; that for “QVQLVESGGGLVQAGGSLSLSCAASGRTLYVYTMGWYRQAPGKERELVASISSGVGTNYADSVKGRFTISRDNAKNTDYLQMNSLKPEDTAVYYCAARFRYYRHYYWGQGTQVTVSS”, “high polyreactivity”; that for “QVQLVESGGGLVQAGGSLRLSCAASGFTFGRYAMGWYRQAPGKERELVAAIATRGGSTYYADSVKGRFTISRDNAMNTVYLQMNSLKPEDTAVYYCAAGGYYVRYDYWGQGTQVTVSS”, “high polyreactivity”.
For “QVQLVESGGGLVQAGGSLRLSCAASGIIFSSYAMGWYRQAPGKERELVAAIDWRGDSTYYADSVKGRFTISRDNAKNTVYLQMNSLKPEDTAVYYCAADGSTYDSVRYGYWGQGTQVTVSS”, the “polyreactivity (PSR sort gate)” value was “low polyreactivity”.
As for “QVQLVESGGGLVQAGGSLRLSSAASGRIFDTNAMGGYRQAPGKERELVAAISKSGGSTYYADSVKGRFTISRDNAKNTVYLQMNSLKPEDTAVYFCAAKYTSGRVLFEHGYWGQGSQVTVSS”, the entry is “low polyreactivity”.
“QVQLVESGGGLVQAGGSLRLSCAASGRTFGDYAMGWSRQAPGKERELVAAIDVDGGSTYYADSVKGRFTISRDNAKNTVYLQMNSLKPEDTAVYYCNAQAPYWFSFYSDHKYDYWGQGTQVTVSS”: the “polyreactivity (PSR sort gate)” value was “low polyreactivity”.
As to “QVQLVESGGGLVQAGGSLRLSCAASGLTFLYYAMGWYRQAPGKERELVASISRGSNTNYADSVKGRFTISRDNAKNTVYLQMNSLKPEDTAVYYCAVDRRPYSGHGYDYWGQGTQVTVSS”, the “polyreactivity (PSR sort gate)” value was “high polyreactivity”.
“QVQLVESGGGLVQAGGSLRLSCAASGRIFQGNAMGWYRQAPRKERELVAAISWRGGRTYYADSVKGRFTISRAYAKNTVYLQMNSLKPEDTAVYYCAAKAYREDEGYWGQGTQVTVSS”: the “polyreactivity (PSR sort gate)” value is given as “high polyreactivity”.
Consider “QEQLVESGGGLVQAGGSLRLSCAASGSILRYYAMRWYRQPPGKEREFVAAISWSGTSTYYADSVKGRFTISRDIAKNTVYLQLNSLKPEDTSVYYCAARTYYVPYYYCGQGTQVTVSS”, for which the “polyreactivity (PSR sort gate)” value is listed as “high polyreactivity”.
With “QVQLVESGAGLVQAGGRLRISCAASGSTFDGNTMGWYRQAPGKERELVAAISGSGGSTYYADSVKGRFTISRDNAKNTVYLQMNSLKPEDTAVYYCAADFRVGRYDYWGQGTQVTVSS”, the “polyreactivity (PSR sort gate)” value is on record as “high polyreactivity”.
As for “PVQLVESGGGLVQAGGSLSLTCAASGFIFYDYAMRWYRPAPGKERELVAGITSSGTSTYYADSVKGRFTISRDNAKNTVYLQMNSLKPEDTSVYYFNKAPSWWDVRVPFDYWGQGTQVTVSS”, the entry is “low polyreactivity”; as for “QVQHEESGGGLVQAGGSLRLSCAASGFTFRGYAMGWYRQAPGKERELVAAISRSGGGTYYADSVKGRFTISRDNAKNTVYLQMNSLKPEDTAVYYCAAVYRRTRSWKFDYWGQGTQVTVSS”, “high polyreactivity”; as for “QVQLVESGGGLVQAGGSLRLTCAASGSTFKQNVMGWYRQAPGKERELVAAITSGGSTNYADSVKGRFTISRDNAKNTVYLQMNSLKPEDTAVYYCNKDTSGIYLDDYWGQGTQVTVSS”, “low polyreactivity”.
As to “QVQLVESGGGLVQAGGSLRLSCAASGSTFGYNAMGWYRQAPGKEREFVATIRYSGDRTYYADSVKGRFTISRDNAKNTVYLQMNSLKPEDTAVYYCAADLYYNSYGRYGRYYYWGQGTQVTVSS”, the “polyreactivity (PSR sort gate)” value is on record as “high polyreactivity”.
In the case of “QVQLVESVGGLVQAGGSLRLSCAASGRTFGRKALVWYTQAPGKERELVAAISTSGSRTYYADSVKGRFTISRDNAKNTVYLQLNSLTPEDTAVYYCYAYGVSRGSYGTRGYWGQGTQVTVSS”, the “polyreactivity (PSR sort gate)” value is on record as “high polyreactivity”.
On to “QVQLVESGGGLVQAGGSLRLSCAASGITFQKNAMGWYSQAPGKERELVAGITWRGSTYYADSVKGRFTISRDNAKNTVYLQRNSLKPEDTAVYYCAADPFSWYRSVRGEYWGQGTQVTVSS”, for which the “polyreactivity (PSR sort gate)” value is “low polyreactivity”.
